Reference: paper doi:10.1101/2021.10.18.464838 (2021)
Where no end group is shown, it is not given here.

Legend:
CHIP (recombinant human) = target: T1, CHIP (recombinant human) (human, UniProt Q9UNE7 1-303); assay: FP
T1 chain: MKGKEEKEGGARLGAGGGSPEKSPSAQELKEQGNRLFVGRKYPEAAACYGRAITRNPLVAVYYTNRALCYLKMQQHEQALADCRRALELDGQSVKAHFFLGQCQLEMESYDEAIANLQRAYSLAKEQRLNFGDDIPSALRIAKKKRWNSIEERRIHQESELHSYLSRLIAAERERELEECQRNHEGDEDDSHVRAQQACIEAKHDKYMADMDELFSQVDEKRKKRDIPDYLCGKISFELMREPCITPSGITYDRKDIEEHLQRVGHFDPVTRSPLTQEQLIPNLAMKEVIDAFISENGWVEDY

[1] = target: DnaJB4 (recombinant, human, full length, wild type) (human, UniProt Q9UDY4 1-337); assay: FP
Sequence of DnaJB4 (recombinant, human, full length, wild type) (Q9UDY4 whole entry): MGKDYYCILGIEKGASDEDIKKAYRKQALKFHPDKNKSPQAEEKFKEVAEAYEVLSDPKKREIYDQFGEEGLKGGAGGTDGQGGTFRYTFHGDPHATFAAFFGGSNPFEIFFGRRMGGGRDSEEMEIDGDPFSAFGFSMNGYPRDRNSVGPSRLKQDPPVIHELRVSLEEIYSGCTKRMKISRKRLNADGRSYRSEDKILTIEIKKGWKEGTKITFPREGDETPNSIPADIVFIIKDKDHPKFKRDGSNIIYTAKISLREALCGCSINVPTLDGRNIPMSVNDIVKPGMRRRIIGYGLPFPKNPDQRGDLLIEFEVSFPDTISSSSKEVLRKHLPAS

Kd (CHIP (recombinant human)): 5.04 µM
Kd [1]: 1.68 µM
B1: Hsp72 phosphomimetic T636E tracer FITC-Ahx-GSGPEIEEVD (peptide)
peptide: GSGPEIEEVD-OH
modifications: not fully specified (N-terminus); printed as FITC-Ahx-GSGPEIEEVD
